Laboratory results published in paper PMC5114395.

Target: Ku heterodimer (Ku70 and Ku80) (UniProt P12956)
UniProt P12956, sequence (P12956 whole entry, chain 1 of 2): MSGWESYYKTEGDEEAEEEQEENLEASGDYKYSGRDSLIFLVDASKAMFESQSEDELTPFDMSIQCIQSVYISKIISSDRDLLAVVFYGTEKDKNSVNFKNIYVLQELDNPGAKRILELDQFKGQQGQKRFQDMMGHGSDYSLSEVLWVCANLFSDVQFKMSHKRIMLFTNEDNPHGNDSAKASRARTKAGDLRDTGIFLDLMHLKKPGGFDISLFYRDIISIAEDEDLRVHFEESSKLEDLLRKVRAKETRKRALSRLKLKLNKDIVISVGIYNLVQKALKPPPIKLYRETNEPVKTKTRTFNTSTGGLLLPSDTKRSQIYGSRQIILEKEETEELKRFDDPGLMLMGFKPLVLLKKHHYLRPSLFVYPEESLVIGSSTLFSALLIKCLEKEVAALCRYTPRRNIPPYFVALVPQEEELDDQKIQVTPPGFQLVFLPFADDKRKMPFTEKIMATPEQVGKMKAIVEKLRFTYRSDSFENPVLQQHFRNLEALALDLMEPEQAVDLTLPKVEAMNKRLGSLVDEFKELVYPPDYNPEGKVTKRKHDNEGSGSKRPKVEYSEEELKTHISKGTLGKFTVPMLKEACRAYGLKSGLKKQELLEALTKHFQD
UniProt P12956, sequence (P13010 whole entry, chain 2 of 2, further chain): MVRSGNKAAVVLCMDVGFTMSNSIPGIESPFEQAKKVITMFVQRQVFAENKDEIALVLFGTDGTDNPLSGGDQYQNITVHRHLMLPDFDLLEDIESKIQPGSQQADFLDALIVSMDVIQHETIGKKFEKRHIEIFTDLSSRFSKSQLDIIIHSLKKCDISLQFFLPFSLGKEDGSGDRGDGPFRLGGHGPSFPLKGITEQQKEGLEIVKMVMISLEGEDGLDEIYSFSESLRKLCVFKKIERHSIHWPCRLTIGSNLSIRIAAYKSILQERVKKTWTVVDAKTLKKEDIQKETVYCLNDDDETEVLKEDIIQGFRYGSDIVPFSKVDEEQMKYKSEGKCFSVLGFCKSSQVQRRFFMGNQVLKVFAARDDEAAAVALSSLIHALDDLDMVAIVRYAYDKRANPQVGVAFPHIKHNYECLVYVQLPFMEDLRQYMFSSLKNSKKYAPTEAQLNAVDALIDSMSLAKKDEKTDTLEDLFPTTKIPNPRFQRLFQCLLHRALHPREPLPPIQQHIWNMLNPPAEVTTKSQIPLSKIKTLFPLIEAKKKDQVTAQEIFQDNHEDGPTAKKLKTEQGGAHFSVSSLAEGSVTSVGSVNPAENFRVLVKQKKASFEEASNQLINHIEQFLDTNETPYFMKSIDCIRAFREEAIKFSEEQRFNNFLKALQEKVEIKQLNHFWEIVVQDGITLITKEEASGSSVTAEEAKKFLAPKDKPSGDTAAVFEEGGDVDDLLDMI

An NHEJ efficiency of blunt-ended DNA with Ku, DNA-PKcs, Artemis, X4·LIV and Pol μ, without or with 500 nM PAXX (Fig. 7B, lanes 12–15) of 2 fold was found for “PAXX (paralog of XRCC4 and XLF) (from UniProt Q9BUH6 1-204) (natural protein)” in this work.
